Data on 1 substance can be found in PMC2667185.

The assay has as its target Mus musculus XRCC2 full length (Mus musculus) (UniProt Q9CX47). Nature of the assay: two-hybrid; same mated yeast; liquid β-galactosidase assay with ONPG as substrate, in triplicate, constructs in both the GAL4 activating and DNA binding domains.
Chain of UniProt Q9CX47 (Q9CX47 whole entry, the tested form may be a part): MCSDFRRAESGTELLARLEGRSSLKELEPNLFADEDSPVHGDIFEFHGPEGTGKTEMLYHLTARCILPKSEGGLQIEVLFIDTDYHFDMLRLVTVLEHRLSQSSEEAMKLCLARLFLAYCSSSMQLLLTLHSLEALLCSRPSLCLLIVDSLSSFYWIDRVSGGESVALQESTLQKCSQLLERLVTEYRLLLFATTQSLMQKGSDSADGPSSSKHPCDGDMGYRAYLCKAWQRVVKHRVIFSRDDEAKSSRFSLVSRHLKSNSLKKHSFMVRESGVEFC

Regarding “Mus musculus RAD51DΔ8 (splice variant product, exon 8 excluded) (from UniProt O55230 4-223) (natural protein)”, the percent of the level of full-length RAD51D (β-galactosidase activity) was 36%.
